The target in this assay is T1, recombinant human angiotensin-converting enzyme 2 (human, UniProt Q9BYF1 18-740).
T1 construct: also called rhACE2; hACE2
Briefly: phage display biopanning. The conditions noted are these: both partners purified.

T1 sequence (Q9BYF1 18-740): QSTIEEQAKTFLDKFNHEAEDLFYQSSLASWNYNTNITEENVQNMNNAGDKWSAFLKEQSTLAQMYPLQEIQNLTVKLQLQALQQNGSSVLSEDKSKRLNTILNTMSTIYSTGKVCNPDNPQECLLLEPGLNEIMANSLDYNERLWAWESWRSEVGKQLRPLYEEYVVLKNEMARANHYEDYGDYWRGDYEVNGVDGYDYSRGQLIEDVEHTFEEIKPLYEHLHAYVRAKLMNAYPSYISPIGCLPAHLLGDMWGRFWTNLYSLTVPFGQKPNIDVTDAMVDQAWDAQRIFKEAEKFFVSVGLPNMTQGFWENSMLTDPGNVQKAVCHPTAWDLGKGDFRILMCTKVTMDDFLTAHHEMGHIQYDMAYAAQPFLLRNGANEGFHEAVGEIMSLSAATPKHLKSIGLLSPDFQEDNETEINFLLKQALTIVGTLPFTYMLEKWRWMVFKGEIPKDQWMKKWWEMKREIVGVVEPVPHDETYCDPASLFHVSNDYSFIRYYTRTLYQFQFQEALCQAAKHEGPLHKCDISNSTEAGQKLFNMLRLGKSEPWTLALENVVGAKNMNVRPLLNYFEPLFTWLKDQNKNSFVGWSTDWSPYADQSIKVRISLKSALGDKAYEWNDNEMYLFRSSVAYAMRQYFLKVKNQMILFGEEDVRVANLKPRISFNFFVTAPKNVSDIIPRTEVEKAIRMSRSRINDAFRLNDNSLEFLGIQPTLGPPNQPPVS

B1: recombinant Qβ phage QβF6 displaying SARS-CoV spike fragment F6 (S425-525) at the C terminus of the A1 minor coat protein (domain or fragment)
chain: not shown
notes: also called GF6; QF6
Regarding B1, the binding result is “binds”.

The values above are taken from paper PMC10750099, “Mapping immunological and host receptor binding determinants of SARS-CoV spike protein utilizing the Qubevirus platform” (The Journal of Biological Chemistry, 2023).
